Reference: US20250346885A1, “SYSTEMS AND METHODS FOR TARGETED CONTINUOUS GENOME MUTAGENESIS” (The Broad Institute, Inc., priority 2023, published 2025)

B1: TraI: E. coli helicase (protein)
chain: MAKIHMVLQGKGGVGKSAIAAIIAQYKMDKGQTPLCIDTDPVNATFEGYKALNVRRLNIMAGDEINSRNFDTLVELIAPTKDDVVIDNGASSFVPLSHYLISNQVPALLQEMGHELVIHTVVTGGQALLDTVSGFAQLASQFPAEALFVVWLNPYWGPIEHEGKSFEQMKAYTANKARVSSIIQIPALKEETYGRDFSDMLQERLTFDQALADESLTIMTRQRLKIVRRGLFEQLDAAAVL
B2: UvrD: E. coli helicase (protein, UniProt P03018 1-720, looked up)
DNA helicase II: MDVSYLLDSLNDKQREAVAAPRSNLLVLAGAGSGKTRVLVHRIAWLMSVENCSPYSIMAVTFTNKAAAEMRHRIGQLMGTSQGGMWVGTFHGLAHRLLRAHHMDANLPQDFQILDSEDQLRLLKRLIKAMNLDEKQWPPRQAMWYINSQKDEGLRPHHIQSYGNPVEQTWQKVYQAYQEACDRAGLVDFAELLLRAHELWLNKPHILQHYRERFTNILVDEFQDTNNIQYAWIRLLAGDTGKVMIVGDDDQSIYGWRGAQVENIQRFLNDFPGAETIRLEQNYRSTSNILSAANALIENNNGRLGKKLWTDGADGEPISLYCAFNELDEARFVVNRIKTWQDNGGALAECAILYRSNAQSRVLEEALLQASMPYRIYGGMRFFERQEIKDALSYLRLIANRNDDAAFERVVNTPTRGIGDRTLDVVRQTSRDRQLTLWQACRELLQEKALAGRAASALQRFMELIDALAQETADMPLHVQTDRVIKDSGLRTMYEQEKGEKGQTRIENLEELVTATRQFSYNEEDEDLMPLQAFLSHAALEAGEGQADTWQDAVQLMTLHSAKGLEFPQVFIVGMEEGMFPSQMSLDEGGRLEEERRLAYVGVTRAMQKLTLTYAETRRLYGKEVYHRPSRFIGELPEECVEEVRLRATVSRPVSHQRMGTPMVENDSGYKLGQRVRHAKFGEGTIVNMEGSGEHSRLQVAFQGQGIKWLVAAYARLESV
B3: Rep: helicase with short-range processivity (protein, UniProt P09980 1-673, looked up)
ATP-dependent DNA helicase Rep: MRLNPGQQQAVEFVTGPCLVLAGAGSGKTRVITNKIAHLIRGCGYQARHIAAVTFTNKAAREMKERVGQTLGRKEARGLMISTFHTLGLDIIKREYAALGMKANFSLFDDTDQLALLKELTEGLIEDDKVLLQQLISTISNWKNDLKTPSQAAASAIGERDRIFAHCYGLYDAHLKACNVLDFDDLILLPTLLLQRNEEVRKRWQNKIRYLLVDEYQDTNTSQYELVKLLVGSRARFTVVGDDDQSIYSWRGARPQNLVLLSQDFPALKVIKLEQNYRSSGRILKAANILIANNPHVFEKRLFSELGYGAELKVLSANNEEHEAERVTGELIAHHFVNKTQYKDYAILYRGNHQSRVFEKFLMQNRIPYKISGGTSFFSRPEIKDLLAYLRVLTNPDDDSAFLRIVNTPKREIGPATLKKLGEWAMTRNKSMFTASFDMGLSQTLSGRGYEALTRFTHWLAEIQRLAEREPIAAVRDLIHGMDYESWLYETSPSPKAAEMRMKNVNQLFSWMTEMLEGSELDEPMTLTQVVTRFTLRDMMERGESEEELDQVQLMTLHASKGLEFPYVYMVGMEEGFLPHQSSIDEDNIDEERRLAYVGITRAQKELTFTLCKERRQYGELVRPEPSRFLLELPQDDLIWEQERKVVSAEERMQKGQSHLANLKAMMAAKRGK
B4: Sgs1: helicase with short-range processivity (protein, UniProt P35187 1-1447, looked up)
ATP-dependent helicase SGS1: MVTKPSHNLRREHKWLKETATLQEDKDFVFQAIQKHIANKRPKTNSPPTTPSKDECGPGTTNFITSIPASGPTNTATKQHEVMQTLSNDTEWLSYTATSNQYADVPMVDIPASTSVVSNPRTPNGSKTHNFNTFRPHMASSLVENDSSRNLGSRNNNKSVIDNSSIGKQLENDIKLEVIRLQGSLIMALKEQSKLLLQKCSIIESTSLSEDAKRLQLSRDIRPQLSNMSIRIDSLEKEIIKAKKDGMSKDQSKGRSQVSSQDDNIISSILPSPLEYNTSSRNSNLTSTTATTVTKALAITGAKQNITNNTGKNSNNDSNNDDLIQVLDDEDDIDCDPPVILKEGAPHSPAFPHLHMTSEEQDELTRRRNMRSREPVNYRIPDRDDPFDYVMGKSLRDDYPDVEREEDELTMEAEDDAHSSYMTTRDEEKEENELLNQSDFDFVVNDDLDPTQDTDYHDNMDVSANIQESSQEGDTRSTITLSQNKNVQVILSSPTAQSVPSNGQNQIGVEHIDLLEDDLEKDAILDDSMSFSFGRQHMPMSHSDLELIDSEKENEDFEEDNNNNGIEYLSDSDLERFDEERENRTQVADIQELDNDLKIITERKLTGDNEHPPPSWSPKIKREKSSVSQKDEEDDFDDDFSLSDIVSKSNLSSKTNGPTYPWSDEVLYRLHEVFKLPGFRPNQLEAVNATLQGKDVFVLMPTGGGKSLCYQLPAVVKSGKTHGTTIVISPLISLMQDQVEHLLNKNIKASMFSSRGTAEQRRQTFNLFINGLLDLVYISPEMISASEQCKRAISRLYADGKLARIVVDEAHCVSNWGHDFRPDYKELKFFKREYPDIPMIALTATASEQVRMDIIHNLELKEPVFLKQSFNRTNLYYEVNKKTKNTIFEICDAVKSRFKNQTGIIYCHSKKSCEQTSAQMQRNGIKCAYYHAGMEPDERLSVQKAWQADEIQVICATVAFGMGIDKPDVRFVYHFTVPRTLEGYYQETGRAGRDGNYSYCITYFSFRDIRTMQTMIQKDKNLDRENKEKHLNKLQQVMAYCDNVTDCRRKLVLSYFNEDFDSKLCHKNCDNCRNSANVINEERDVTEPAKKIVKLVESIQNERVTIIYCQDVFKGSRSSKIVQANHDTLEEHGIGKSMQKSEIERIFFHLITIRVLQEYSIMNNSGFASSYVKVGPNAKKLLTGKMEIKMQFTISAPNSRPSTSSSFQANEDNIPVIAQKSTTIGGNVAANPPRFISAKEHLRSYTYGGSTMGSSHPITLKNTSDLRSTQELNNLRMTYERLRELSLNLGNRMVPPVGNFMPDSILKKMAAILPMNDSAFATLGTVEDKYRRRFKYFKATIADLSKKRSSEDHEKYDTILNDEFVNRAAASSNGIAQSTGTKSKFFGANLNEAKENEQIINQIRQSQLPKNTTSSKSGTRSISKSSKKSANGRRGFRNYRGHYRGRK
B5: UGI: uracil DNA glycosylase inhibitor fused to the HACE editor (protein, UniProt P14739 1-84, looked up)
Uracil-DNA glycosylase …: MTNLSDIIEKETGKQLVIQESILMLPEEVEEVIGNKPESDILVHTAYDESTDENVMLLTSDAPEYKPWALVIQDSNGENKIKML
modifications: fused to HACE editor

Experiments:
double-stranded DNA = conditions: average base pairs unwound in a single binding event; cited from earlier work
HEK3 locus = assay: HACE editing assay at the HEK3 locus, amplicon sequencing; type: cell-based, human; conditions: HEK293FT cells, HEs with and without UGI fusion
Description: An example HACE Editor (HE) protein was constructed by fusing a hyperactive mutant of activation-induced cytidine deaminase (AID*Δ) with a Geobacillus stearothermophilus PcrA helicase that was previously optimized for processivity (PcrA M6). […] After the nCas9 creates a nick, the HE may load at the nick, start unwinding the DNA, and generate random mutations in the process.
Separate plasmids expressing HE, nCas9, and a sgRNA targeting the HEK3 locus were transfected into HEK293FT cells. Cells were collected 72 hours after transfection, and editing rates were evaluated by amplicon sequencing. […] A strand bias with G>A substitutions occurring at a higher rate than C>T substitutions was detected, which likely reflects preferential repair of mismatches on the nicked strand. […]
For short amplicon (˜300 bp) sequencing for HEK293T and A375 cells, the target region was amplified from genomic DNA samples using Phusion U Hot Start PCR master mix (ThermoFisher Scientific, F562) in a 20 μL reaction. […] Amplicons were pooled and prepared for sequencing on a NextSeq (Illumina) with paired-end reads (read1, 160 bp; index1, 8 bp; index2, 8 bp; read2, 160 bp). Reads were demultiplexed and analyzed with appropriate pipelines. […]
Raw fastq reads obtained from sequencing were quality trimmed using BBduk(1) (BBMap v38.93) with the options “qtrim=r1 trimq=28 maq=25”. […]

Molecule	processivity range (double-stranded DNA)	effect of UGI fusion on editing levels for AID (HEK3 locus)
B1	at least 850 base pairs	
B2	30-40 base pairs	
B3	30-50 base pairs	
B4	about 100 base pairs	
B5		significantly elevated the editing levels
